From publication PMC4427203 (2015)

Biological target: Hsp90 600-709 (Saccharomyces cerevisiae (strain ATCC …, UniProt P02829))
Assay: Kd quoted from earlier work (method not stated here)

B1: AIP 172-315 (protein)
chain: DEEKAKAVPLIHQEGNRLYREGHVKEAAAKYYDAIACLKNLQMKEQPGSPEWIQLDQQITPLLLNYCQCKLVVEEYYEVLDHCSSILNKYDDNVKAYFKRGKAHAAVWNAQEAQADFAKVLELDPALAPVVSRELRALEARIRQ
Kd: 13.3 µM
